# Measurements taken from US20140315986.
# Tests used:
# [1] = target: IL-6 (mature human interleukin-6) (Homo sapiens) (UniProt P05231); test: filter
# [2] = target: IL-6 (mature human interleukin-6) (Homo sapiens) (UniProt P05231); test: cell_activity; conditions: 2'-OMe at C3,G6,A16,A19,C20,C28, STAT3 gene reporter assay
# [3] = target: T1, IL-6 (Macaca fascicularis) (UniProt P79341); test: filter; conditions: Bn-dU at 7,8,14,15,22,23,27,30; PE-dU at 9; Nap-dU at 12; 2'-OMe at C3,G6,A16,A19,C20,C28
# T1 sequence: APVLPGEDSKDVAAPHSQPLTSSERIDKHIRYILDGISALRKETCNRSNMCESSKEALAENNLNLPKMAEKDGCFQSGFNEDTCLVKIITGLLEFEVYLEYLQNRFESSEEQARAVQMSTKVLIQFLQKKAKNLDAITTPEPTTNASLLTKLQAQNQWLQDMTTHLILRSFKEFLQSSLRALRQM
# [4] = target: T1, IL-6 (Macaca fascicularis); test: cell_activity; conditions: Bn-dU at 7,8,14,15,22,23,27,30; PE-dU at 9; Nap-dU at 12; 2'-OMe at C3,G6,A16,A19,C20,C28; gene reporter assay
Sequence,Kd ([1]; all U are Nap-dU) [nM],also measured
GGCAGGUUUGGUGUGG [2573-20_324 Bn7 to MBn variant],,"Kd ([1]; G-G-C1-A-G-G1-MBn-Bn-Pe-G-G-Nap-C3-G-Bn-G-G (1=2'-OMe, C3=spacer), 100-fold improvement over parent stated): 1 nM"
GGCAGGUUUGGUAUUAACACGUUAAGUCGUGG [2573-20_135],,IC50 ([2]; all U are Bn-dU): 0.24 nM
GATGTGAGTGTGTGACGAGUGGGCAGGUUUGGUAUUAACACGUUAAGUCGUGGGGUCGCACAGAGAAGAAACAAGACC [2573-20],,"Kd ([1]; all U are Bn-dU (5-benzylcarboxamide-dU), SB17T-0.002 (125 mM NaCl, 5 mM KCl, 5 mM MgCl2), 37 C, ZORBAX capture): 3 nM"
GGGGUUAUGUAGCGAGUGCGUAAGGCGGUGGGCGAG [2574-49_8],1.2,
GGGGUUAUGUAGCGAGUGCGUAAGGCGGUGGGC [2574-49_11],1.5,
GGCAGGUUUGGUAUUAACACGUUAAGUCGUGG [2573-20_136],,"Kd [3]: 2 nM; IC50 ([2]; Bn-dU at 7,8,14,15,22,23,27,30, PE-dU at 9, Nap-dU at 12): 0.5 nM; IC50 [4]: 9.7 nM"
GGGUUAUGUAGCGAGUGCGUAAGGCGGUGGGCGAGGGA [2574-49_15],2.1,
GGCAGGUUUGGUAUUAACACGUUAAGUCGUGGGGUC [2573-20_3],,Kd ([1]; all U are Bn-dU): 1.5 nM
GGGGUUAUGUAGCGAGUGCGUAAGGCGGUGGGCGA [2574-49_9],1.8,
UUAUGUAGCGAGUGCGUAAGGCGGUGGGCGAGGGA [2574-49_18],19,
GGUUAUGUAGCGAGUGCGUAAGGCGGUGGGCGAGGGA [2574-49_16],3.9,
GGGGUUAUGUAGCGAGUGCGUAAGGCGGUGGG [2574-49_12],1.1,
GGGGUUAUGUAGCGAGUGCGUAAGGCGGUGGGCG [2574-49_10],1.9,
GGGGUUAUGUAGCGAGUGCGUAAGGCGGUGGGCGAGGG [2574-49_6],3.5,
GGGGUUAUGUAGCGAGUGCGUAAGGCGGUGGGCGAGGGA [2574-49_3],4.1,
GGGGUUAUGUAGCGAGUGCGUAAGGCGGUGGGCGAGG [2574-49_7],2.6,
GATGTGAGTGTGTGACGAGGGGGUUAUGUAGCGAGUGCGUAAGGCGGUGGGCGAGGGAUCACAGAGAAGAAACAAGACC [2574-49],,"Kd ([1]; all U are Nap-dU (5-naphthylmethylcarboxamide-dU), SB17T-0.002 (125 mM NaCl, 5 mM KCl, 5 mM MgCl2), 37 C, ZORBAX capture): 2 nM"
GGCAGGUUUGGUGUGG [2573-20_324 G-quartet fragment],,"Kd ([1]; G-G-C1-A-G-G1-Bn-Bn-Pe-G-G-Nap-C3-G-Bn-G-G (1=2'-OMe, C3=spacer), p263 states approximately 200 nM): 270 nM"
GGCAGGUUUGGUAUUAACACGUUAAGUCGUGGG [2573-20_14],,Kd ([1]; all U are Bn-dU): 2.8 nM
GUUAUGUAGCGAGUGCGUAAGGCGGUGGGCGAGGGA [2574-49_17],17,
GGGGUUAUGUAGCGAGUGCGUAAGGCGGUGG [2574-49_13],1.1,
GGGGUUAUGUAGCGAGUGCGUAAGGCGGUG [2574-49_14],0.7,
GGCAGGUUUGGUAUUAACACGUUAAGUCGUGGGG [2573-20_13],,Kd ([1]; all U are Bn-dU): 1.9 nM
GGCAGGUUUGGUAUUAACACGUUAAGUCGUGGGGU [2573-20_12],,Kd ([1]; all U are Bn-dU): 1.4 nM
GGCAGGUUUGGUAUUAACACGUUAAGUCGUGG [2573-20_15],,Kd ([1]; all U are Bn-dU): 1 nM
